Test results from the DeepSol protein solubility set.

experiment: soluble on expression in E. coli; label from the status in PepcDB or PDB records

| Sequence | soluble on expression in E. coli |
| --- | --- |
| PDLSTWNLTIPQGRPAITISTSQLQRDYRSDYFQRTADGIRFWVPVNGSHTRNSEFPRSELRETLSSGRPYNWRYARADNWLEATLRIEAVPSTRRMIIGQIHSDGSNSGQAAPLVKLLYQLRLDQGRVQALVRERPDDGGTRAYTLMDGIPLGQPFSYRIGVSRSGLLSVSVNGSALEQQLDPQWAYQGLYFKAGLYLQDNRGPSSEGGRATFSELRVSHQ | soluble |
| AHHHHHHGSYKILEKKEIAMRNTWYKVYAPHVAKKVQPGQFVIVRAFPNGERIPLTPVMWDREEGWIVLIVFTRGKTTMRMAVELKEGDSLLNVAGPLGTPVPMEKFGKILAIGAYTGIVEVYPIAKAWQEIGNDVTTLHVTFEPMVILKEELEKAVTRHIVEPVPLNPNQDFLANMKNVSQRLKEKVRELLESEDWDLVFMVGPVGDQKQVFEVVKEYGVPMKVDLHPIMVDGTGMCGACRVTVGGEVKFACVDGPEFDAYQVDWDELIHRVGFYAKLEKLALEKYMEELKAKGVIMPRLIKERVPTPERSVGERVRDFGEVNLGYSWELALREAERCLQCPVEYAPCIKGCPVHINIPGFIKALRENRDNPSKAVREALRIIWRDNTLPAITGRVCPQEEQCEGACVVGKVGDPINIGKLERFVADYAREHGIDDELLLEEIKGIKRNGKKVAIIGAGPAGLTCAADLAKMGYEVTIYEALHQPGGVLTYGIPEFRLPKEILRKELKKLSLLGVEIKTDHIVGKTITIQELLQEYDAVFIGTGAGTPKLPNIPGINLNGIYSANEFLTRINLMKAYKFPEYDTPIVVGKKVVVIGAGNTAMDAARSALRLGAEVTIAYRRGREDMTARIEEVKHAEEEGVKFMFFVNPVEFIGDENGNVKAVKFEKMKPLEERDSRGKRKIVGTGEYITVEADTVIIAIGQTPNKVLWRATPELKVDEWGRIVVDENLMTSIPGVFAGGDAIRGEATVILAMGDGRKAAKAIHQYLSKKGN | soluble |
| MSMFGKVAADVLGLSDIGSVIQPKDYDKVDADDYVMHEDGEKIYFLIKSKSDEYCFTNRALIHLDGTSAASKKRTLRRYDYYKHPISDVSLETAGTVDLDAEIKFKIGPHSYSIDVHKKHIEELKDLYKSLLAIAEICHENEMKFHYAERSLELATKVFANMRGDGANVSADFQAVNEYAFRWLTEAKKNYTVKDFGFVFDKYIQQ | not soluble |
| MQRNVMSEIVYGDKQLQILIAAEKLIAEQGFQGLSMHKVAKAANMATGTIYRYFRDKDHLLIEVRLHVSQKIAEAVQANLRDDMSLQERFRTMWLNIWTLAGSCRDIISNRVQYESLPTTTCCNVRELEQKMFAKVELLFDQGKQQGIFKPLDNHLLSALSFETTVTLARQYALGFYQLDDSTLDAMIQASWDAITQH | not soluble |
| MGSDKIHHHHHHMIIEHARDMLKRERLFFDKIQAHIGEVNGTISIGCSSLIGQTLLPEVLSLYNSQFPNVEIQVQVGSTEQIKAHHRDYHVMITRGNKVMNLSNTHLFNDEHYFIYPKDRKEDVTKLPFIEFQADPIYINQIKQWYNDHLGHDYHATITVDQVATCKEMLLSGVGVTILPKIMMKNIDKNMFEFEKVTIDKKPLIRSTYMSYDASMLQLPQVDAFVNLMLNFIR | not soluble |
| MLQLFSFLAIFYISLSNCDPQILRLKSIPSPIPNVEEGAKLYLASNDDNGLLKNIQVQTAGGSFTLDQINVNTANGNAKSIVIDGGLVISTSNSNADTSGLTGFLYLTTKKQADDPAFSVYVIKQAQTVSTTQPNSTVVILNTELDNDAFFDHIEPLQIGLDYWYFTASEPMSMTMESKYVSDLVYTTTSVNTTGLVVNDFLFQEHVVKFQLDLTRVRTIGTLVSAIPIASQINVIFNQGGGISAQR | not soluble |
| DIELTQSPPSLPVSLGDQVSISCRSSQSLVSNNRRNYLHWYLQKPGQSPKLVIYKVSNRFSGVPDRFSGSGSGTDFTLKISRVAAEDLGLYFCSQSSHVPLTFGSGTKLEIKR | soluble |
| SLDMIRIDSQTNSSHLKDEFQTLNSVTPRLQAEDCSIACLPRNHDKNRFMDMLPPDRCLPFLITIDGESSNYINAALMDSYRQPAAFIVTQYPLPNTVKDFWRLVYDYGCTSIVMLNEVDLSQGCPQYWPEEGMLRYGPIQVECMSCSMDCDVINRIFRICNLTRPQEGYLMVQQFQYLGWASHREVPGSKRSFLKLILQVEKWQEECEEGEGRTIIHCLNGGGRSGMFCAIGIVVEMVKRQNVVDVFHAVKTLRNSKPNMVEAPEQYRFCYDVALEYLESS | not soluble |
| MGSDKIHHHHHHQEQVKVVDRTIRIGDAMEHPVPMKLSAFVDSITYVPLETTKSYVKDKMLISYVKPYWGVYPGSLFDKEGRFVANIGALGQGPGEESGFGYSIFYDRDRNIFYTQGDKIIQFDAKGKFTGKEIRIAYRDKGIEGKIASGLKNVYAMVKSGKDYLIVNYPDSIFWMDAELNVRHGDRIISDSLFLTPSGVGGGMPYTFSDYKDTTIFYNCFTDAIYTVTDTGLQKRWTLEFKGSKADNRCFLNDYKKLYLDEYVKIVSSSKGNVETMKEKAQNSELAQLIDNKKWVYHVSEGERYLFLWWLNLKAFSSAWRGYNESHIALYDKRTGEAVAIAGDGLIDDIDNGMTFFPRYGICNNAMVSSVWPFELKEYIQEKKAKGEAVSDRLIALADSLDDEQNPILVIAHLKK | not soluble |
| MGLIIYHKGGRKMKKNILIVGGGPEITICYDLINNSTEYNFFSVSEIPTMYPELFVETIETSFRNFGKTIEQIKELKYSIDAVACWDEALTHIADDISKELGLNPISSLDSQSFRFKDRMRMVCEAGGLKMPKYKIINQFSDTNKIINWKYPLIVKPTSFLASIGVKKVYNFSELQQAVSQMLNVKFPVYIASGVYELGELYNLEPRVLVEEFIDGEEYSLESVVRNGIYTPLGITKKIVDEKLFMDEIGHIFPSNLNKEEKSRVYSWAEKLHQILQLNHITTHTEFRIGRNGDIILIEIGARIGGDCIPNLMKNSFIVKGFDFYNTYLKARLGLQEELNTDTNKFSGIVFFRLNPENYGKIFNGVSYDAPKTSLIFEEKIYKKEGTVLPNPINWSNERVGYVCLENKEYAVLEKEMKEILKSLSIE | not soluble |
| MIKIAITKGRIQKQVTKLLENADYDVEPILNLGRELQIKTKDDLQIIFGKPNDVITFLEHGIVDIGFVGKDTLDENDFDDYYELLYLKIGQCIFALASYPDFSNKNFQRHKRIASKYPRVTKKYFAQKQEDIEIIKLEGSVELGPVVGLADAIVDIVETGNTLSANGLEVIEKISDISTRMIVNKSSFKFKKDKIIEMVERLEDAQTN | soluble |
| MSNAPLMPKATAVWLLDNTALTFDQVADFTKMHVLEVKAIADGDAAQGIKGMDPISTGQLTRDEIEKGEGDPDYRLKLAESKVVLPQAAKKKGPRYTPVSRRHERPSAILWLVRNHPELKDAQIMRLVGTTKTTIASVRDRTHWNAATLTPMDPVTLGLCSQLDLDFEVQRAAKEKPIDQQYGGATLLPASETTRKEAEFEAATSGKSQEDLDVDAVFAKLKTIGGKKHDDEDEDGGFLEHHHHHH | soluble |
| MKTVTARPLTAEAFAPYGSVADISELENLVSLADAYEGTGEAKTPVLQLVQAKAMSGSPVISQMEIHPFSSQTFLPLDQSSSLIVVCEAGEDGMPDESTIKAFLASPSQIVTYRHGVMHHRLTPLAPSGRFAMTMWQTGRGGDTVLYPLHTPVSVDISDITP | not soluble |
| MMIYCARIVAIGLFVADGLTDKMLITFDSNGPKDCLDYSLSLEPSFREESLMILPGDRLLLAGHDYLVTSVGKGAQQALFELGHLTLVFNGDLNACHVGAVHLSGPVPKLRDLHGNLVIEEGRP | soluble |
| MKITVIVPTYRRTKDLTRCLESLEKQSRPADEVLVVVRDTDVETWQFLETIAPHSLPLHTTTVRVPGVVAAMNAGLDIAQGDIIAFTDDDAAPHSNWLAQIETHFLAHEQIAGVGGRDWVYHGDRLEDGTCPVVGQVHWFGRVIGNHHIGIGKPREVDVLKGVNMSFRRSAVHGLRFDQRMLGTGAQVHFEVAFCLALKRAGWKLIYDPQIGVNHYPAQRFLEHHHHHH | not soluble |
| MTTPAPVPRITVLLPVYNGEQYLREALDSLLTQTYRNFSLLAVDDGSTDSSLEILRSIKDPRLSVKVNPRNRGLINTLNESLDLIQSEYVARMDADDIATPYRLEEQLAFMDAHPDVGLCGGYYERFTDTESIVVRPPTTHEDISYALIFDNVMAHNTVMFRRSVLERYRLRYDPAFAYAEDYELWVRFARYSRLANLPRVLVRYRFHPANTSSRFRHEQQIAAAKIRHIHRTNLGLEPRPGDAALHRQLFDMRFEGDLPELTAAGIWLSKLYRVGVRRCRQNPVSTFLEFNKLWYSACGRLADHGLKVFAQFLRQPFGFLGNPAYTLKLAYRCWRRIRIALEHHHHHH | not soluble |
